# Measured values reported in article doi:10.1101/2021.01.12.426377 (bioRxiv, 2021).
# T1: FtsA(E14R) (E. coli, UniProt P0ABH0 1-420, E14R)
# T1 sequence: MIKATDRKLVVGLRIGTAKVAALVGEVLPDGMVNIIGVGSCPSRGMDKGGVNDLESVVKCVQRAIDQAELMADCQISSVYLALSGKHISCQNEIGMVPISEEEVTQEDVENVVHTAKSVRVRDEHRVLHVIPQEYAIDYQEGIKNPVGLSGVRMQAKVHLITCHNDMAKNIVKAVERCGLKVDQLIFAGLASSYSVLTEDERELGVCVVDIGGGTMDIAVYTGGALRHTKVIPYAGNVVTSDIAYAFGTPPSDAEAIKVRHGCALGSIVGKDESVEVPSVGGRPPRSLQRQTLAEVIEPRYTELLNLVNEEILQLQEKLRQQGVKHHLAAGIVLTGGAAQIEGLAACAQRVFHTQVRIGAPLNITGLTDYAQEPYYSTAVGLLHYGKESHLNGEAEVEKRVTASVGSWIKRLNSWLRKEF
# B1: FtsZ (Escherichia coli, wild type) (natural protein)
# chain: MFEPMELTNDAVIKVIGVGGGGGNAVEHMVRERIEGVEFFAVNTDAQALRKTAVGQTIQIGSGITKGLGAGANPEVGRNAADEDRDALRAALEGADMVFIAAGMGGGTGTGAAPVVAEVAKDLGILTVAVVTKPFNFEGKKRMAFAEQGITELSKHVDSLITIPNDKLLKVLGRGISLLDAFGAANDVLKGAVQGIAELITRPGLMNVDFADVRTVMSEMGYAMMGSGVASGEDRAEEAAEMAISSPLLEDIDLSGARGVLVNITAGFDLRLDEFETVGNTIRAFASDNATVVIGTSLDPDMNDELRVTVVATGIGMDKRPEITLVTNKQVQQPVMDRYQQHGMAPLTQEQKPVAKVVNDNAPQTAKEPDYLDIPAFLRKQAD
# Assays:
# [1] = molecular target: the molecule itself; assay: negative-stain transmission electron microscopy
# FtsA(E14R) = molecular target: T1, FtsA(E14R); assay: co-sedimentation
binder,measurement,setting,value
B1,binding result,[1],binds
same,binding result,FtsA(E14R),binds
